Test results: paper PMC6762210, “The monothiol glutaredoxin GrxD is essential for sensing iron starvation in Aspergillus fumigatus” (PLoS Genetics, 2019)
Numbering of substitutions follows the chain as printed. Names may count otherwise.

T1: GrxD (recombinant full-length GrxD after removal of the His-tag by TEV protease) (A. fumigatus, UniProt Q4X024 1-271)
T1 construct: GrxD of Aspergillus fumigatus (Afu2g14960), full length, from a synthetic gene; Residues of the TEV site may be left at the C-terminus after cleavage (surmise); source: E. coli BL21(DE3), co-expressed with HapX^161-491, purified (Ni-Sepharose, TEV protease, Superdex 200 SEC); not shown: His6, C-terminal, cleaved
T1 sequence (looked up): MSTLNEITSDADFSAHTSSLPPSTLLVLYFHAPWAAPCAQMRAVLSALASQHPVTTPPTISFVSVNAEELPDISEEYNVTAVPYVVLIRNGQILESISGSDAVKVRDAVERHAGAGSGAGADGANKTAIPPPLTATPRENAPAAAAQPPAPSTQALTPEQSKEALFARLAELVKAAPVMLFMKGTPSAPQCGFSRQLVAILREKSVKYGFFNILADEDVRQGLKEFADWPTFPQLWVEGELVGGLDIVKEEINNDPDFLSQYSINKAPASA

B1: HapX^161-491 (A. fumigatus HapX C-terminus with all four cysteine-rich regions) (domain or fragment, UniProt Q4WER3 161-491, looked up)
chain: KGLAPLTTSTPQARSSDRPDNGDASNNDSGEGREEVPLGCNDCSTSHCQCIEDAFTMPGVVAQEQSRRLDTTKPGLSEPQIKPDPEEMEIDFTSRFAATQQQDQSPTSVSSPAVDPCGFCSDGTPCICAEMAAQEEQRPRRNSFENNRLAPIQNLSQFTPPPSDGDVRSDVTLPPISQATNPCANGPGTCAQCLADPRRTLFCKTLAASRSPSAAPSGCCGGKGADGGCCQSRNTNVSRGRSGSNNNTSSGSSAAPSLTLSCADAYTTLSRHPNFSRATDELSTWLPKLHTLPKPRDFPLTDRGVPRAALEVEAASVMGVLRYFDRRFADK
notes: HapX of Aspergillus fumigatus (Afu5g03920), amino acids 161-491 (cysteine-rich C-terminus), from a synthetic gene; also called AfuHapX^161-491; pnCS-HapX161-491; source: E. coli BL21(DE3), untagged, bicistronically co-expressed with GrxD-His6; in crude cell extract, then co-purified (Ni-Sepharose, SEC)
B2: GrxD^C191A (recombinant GrxD with cysteine 191 mutated to alanine) (natural protein)
chain: T1 sequence (looked up) with C191A
notes: GrxD of Aspergillus fumigatus (Afu2g14960), full length, C191 of the CGFS motif mutated to A; source: E. coli BL21(DE3), co-produced with HapX^161-491, purified (Ni-chelate, TEV protease, SEC); not shown: His6, C-terminal, cleaved

Key:
[1] = biological target: T1, GrxD (recombinant full-length GrxD …); test: SEC; Ni-chelate eluate digested with TEV protease and loaded on Superdex 200 prep grade 26/60 in 25 mM HEPES pH 7.5, 150 mM NaCl, 2 mM glutathione; apparent masses from protein calibration standards; fractions checked by SDS-PAGE; settings: both partners purified
[2] = biological target: B1; test: as above; settings: both partners purified

B1
stoichiometry N [1]: ~1 HapX^161-491 per GrxD (2:2)

B2
binding result [2]: binds
